Drawing on PMC5740175, this text covers binding signal (% of WT bound) and Kd for 3 substances.

The test system of data set [1] is IRP1 (iron regulatory protein 1). As to the kind of experiment: EMSA. To be noted: 25 mM Tris/HCl pH 7.4, 40 mM KCl, 1% Triton X-100, protease inhibitor (EDTA-free), 200 ng IRP1, 100 ng labeled probe, 15 min room temperature, then 50 ng …. (A gel shift assay detects complexes by their altered migration in electrophoresis.)
Data set [2] has the same test system. As to the kind of experiment: competition EMSA. To be noted: 25 mM Tris/HCl pH 7.4, 40 mM KCl, 1% Triton X-100, protease inhibitor (EDTA-free); 200 ng IRP1, 100 ng labeled probe; 15 min room temperature, then 50 ng ….

In turn, FTL 5' IRE +39ΔC gave a binding signal (% of WT bound) in data set [1] (direct, minimal binding, reduction of almost 95%, mean of 4, heparin) of 5.

Take FTL 5' IRE Ghent +49A>G: the binding signal (% of WT bound) in data set [1] (direct, 75% decrease, mean of 4, heparin) was 25. Moreover, the Kd (in general, the concentration at which binding is half-saturated) in data set [2] stood at 2.7 nM.

On to FTL 5' IRE WT, for which, in data set [1], the binding signal (% of WT bound) is 100. This substance also had a Kd in data set [2] of 0.5 nM.
